# Test system: Escherichia coli TOP10
# Assay: shrunken log2 fold change of peptide-encoding DNA abundance (4.5 h post-induction vs induction); higher = less antimicrobial activity (less host growth inhibition)
# Details: time post-induction: 4.5 h; library: site-saturation at positions 5, 18, 19, 20
# 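Further: peptides expressed intracellularly from a pBAD plasmid library in pooled LB shake-flask culture, induced with 0.3% L-arabinose, DNA abundance read by NGS, three biological replicates, DESeq2 with apeglm shrinkage.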
row,Sequence,shrunken log2 fold change
1,RRIRYRPPRLPRPRPRPAHKPRP,0.00824
2,RRIRYRPPRLPRPRPRPIMKPRP,0.0367
3,RRIRGRPPRLPRPRPRPVMQPRP,0.775
4,RRIRNRPPRLPRPRPRPWSSPRP,-0.0666
5,RRIRNRPPRLPRPRPRPGFKPRP,-0.171
6,RRIRRRPPRLPRPRPRPQDCPRP,-0.151
7,RRIRVRPPRLPRPRPRPVGIPRP,-0.0251
8,RRIRARPPRLPRPRPRPWPVPRP,0.558
9,RRIRSRPPRLPRPRPRPCWFPRP,-0.0822
10,RRIRFRPPRLPRPRPRPGWFPRP,0.237
11,RRIRWRPPRLPRPRPRPCKDPRP,-0.381
12,RRIRERPPRLPRPRPRPIGNPRP,-0.134
13,RRIRARPPRLPRPRPRPAWQPRP,0.626
14,RRIRIRPPRLPRPRPRPLFEPRP,-0.251
15,RRIRRRPPRLPRPRPRPRDRPRP,0.713
16,RRIRSRPPRLPRPRPRPTWGPRP,0.134
17,RRIRDRPPRLPRPRPRPGGTPRP,0.454
18,RRIRGRPPRLPRPRPRPCKHPRP,0.112
19,RRIRYRPPRLPRPRPRPAIGPRP,-0.105
20,RRIRQRPPRLPRPRPRPGVIPRP,0.0679
21,RRIRGRPPRLPRPRPRPIRGPRP,0.29
22,RRIRHRPPRLPRPRPRPHDDPRP,-0.0997

row,Sequence,shrunken log2 fold change
1,RRIRSRPPRLPRPRPRPPWAPRP,0.643
2,RRIRGRPPRLPRPRPRPRVVPRP,0.667
3,RRIRFRPPRLPRPRPRPCVKPRP,-0.123
4,RRIRQRPPRLPRPRPRPHRTPRP,-0.0723
5,RRIRVRPPRLPRPRPRPDMQPRP,-0.081
6,RRIRERPPRLPRPRPRPLSGPRP,-0.135
7,RRIRGRPPRLPRPRPRPKCVPRP,0.505
8,RRIRERPPRLPRPRPRPLDKPRP,-0.114
9,RRIRYRPPRLPRPRPRPNGLPRP,-0.0845
10,RRIRKRPPRLPRPRPRPGREPRP,0.913
11,RRIRPRPPRLPRPRPRPMNVPRP,-0.0376
12,RRIRFRPPRLPRPRPRPWMDPRP,-0.347
13,RRIRVRPPRLPRPRPRPAQKPRP,0.135
14,RRIRFRPPRLPRPRPRPRFNPRP,-0.196
15,RRIRLRPPRLPRPRPRPLVVPRP,-0.113
16,RRIRNRPPRLPRPRPRPCSMPRP,-0.132
17,RRIRHRPPRLPRPRPRPERSPRP,0.0418
18,RRIRHRPPRLPRPRPRPSKAPRP,-0.463
19,RRIRMRPPRLPRPRPRPKLTPRP,1.14
20,RRIRARPPRLPRPRPRPKSQPRP,0.286
21,RRIRWRPPRLPRPRPRPQDMPRP,-0.199
22,RRIRDRPPRLPRPRPRPHTGPRP,-0.0359

row,Sequence,shrunken log2 fold change
1,RRIRRRPPRLPRPRPRPIDDPRP,-0.128
2,RRIRNRPPRLPRPRPRPTALPRP,-0.18
3,RRIRFRPPRLPRPRPRPPIAPRP,0.31
4,RRIRLRPPRLPRPRPRPFMRPRP,0.495
5,RRIRVRPPRLPRPRPRPCICPRP,-0.338
6,RRIRDRPPRLPRPRPRPREMPRP,0.00815
7,RRIRMRPPRLPRPRPRPIWSPRP,0.0584
8,RRIRWRPPRLPRPRPRPGHAPRP,0.234
9,RRIRARPPRLPRPRPRPYMQPRP,-0.53
10,RRIRTRPPRLPRPRPRPMSCPRP,-0.181
11,RRIRNRPPRLPRPRPRPPAQPRP,0.314
12,RRIRVRPPRLPRPRPRPRMLPRP,-0.103
13,RRIRFRPPRLPRPRPRPHYEPRP,-0.0922
14,RRIRNRPPRLPRPRPRPMISPRP,-0.0707
15,RRIRYRPPRLPRPRPRPMKHPRP,-0.495
16,RRIRWRPPRLPRPRPRPGTWPRP,0.0354
17,RRIRQRPPRLPRPRPRPYLQPRP,0.000139
18,RRIRSRPPRLPRPRPRPRKNPRP,-0.0439
19,RRIRDRPPRLPRPRPRPQHDPRP,-0.249
20,RRIRGRPPRLPRPRPRPLLEPRP,1.39
21,RRIRLRPPRLPRPRPRPMFVPRP,-0.354
22,RRIRDRPPRLPRPRPRPESGPRP,0.778

row,Sequence,shrunken log2 fold change
1,RRIRPRPPRLPRPRPRPAFMPRP,-0.0434
2,RRIRRRPPRLPRPRPRPFQDPRP,-0.15
3,RRIRHRPPRLPRPRPRPFMQPRP,-0.348
4,RRIRARPPRLPRPRPRPKSIPRP,-0.078
5,RRIRMRPPRLPRPRPRPASWPRP,0.901
6,RRIRSRPPRLPRPRPRPTWAPRP,0.518
7,RRIRRRPPRLPRPRPRPSREPRP,0.962
8,RRIRNRPPRLPRPRPRPACFPRP,0.0188
9,RRIRKRPPRLPRPRPRPVKAPRP,-0.0242
10,RRIRLRPPRLPRPRPRPDQDPRP,-0.218
11,RRIRERPPRLPRPRPRPIKIPRP,-0.681
12,RRIRIRPPRLPRPRPRPCMAPRP,-0.335
13,RRIRLRPPRLPRPRPRPNNGPRP,0.0736
14,RRIRRRPPRLPRPRPRPIFIPRP,-0.0166
15,RRIRNRPPRLPRPRPRPSETPRP,-0.083
16,RRIRRRPPRLPRPRPRPYNNPRP,-0.76
17,RRIRFRPPRLPRPRPRPSDEPRP,-0.308
18,RRIRERPPRLPRPRPRPSPAPRP,-0.0943
19,RRIRHRPPRLPRPRPRPRWCPRP,0.0475
20,RRIRLRPPRLPRPRPRPDMSPRP,-0.428
21,RRIRARPPRLPRPRPRPQAKPRP,0.0548
22,RRIRCRPPRLPRPRPRPFVYPRP,-0.526

row,Sequence,shrunken log2 fold change
1,RRIRWRPPRLPRPRPRPFSCPRP,-0.00231
2,RRIRPRPPRLPRPRPRPQTPPRP,0.313
3,RRIRMRPPRLPRPRPRPSVIPRP,-0.244
4,RRIRTRPPRLPRPRPRPRCFPRP,0.204
5,RRIRCRPPRLPRPRPRPYEEPRP,-0.255
6,RRIRPRPPRLPRPRPRPRDQPRP,0.0809
7,RRIRSRPPRLPRPRPRPMDNPRP,-0.0175
8,RRIRIRPPRLPRPRPRPNLVPRP,-0.175
9,RRIRYRPPRLPRPRPRPSNKPRP,-0.953
10,RRIRVRPPRLPRPRPRPMMQPRP,0.0134
11,RRIRSRPPRLPRPRPRPNVQPRP,-0.335
12,RRIRDRPPRLPRPRPRPEFMPRP,0.419
13,RRIRRRPPRLPRPRPRPWRWPRP,0.14
14,RRIRHRPPRLPRPRPRPRKNPRP,0.00268
15,RRIRHRPPRLPRPRPRPWLYPRP,-0.217
16,RRIRGRPPRLPRPRPRPWIRPRP,-0.164
17,RRIRKRPPRLPRPRPRPNVMPRP,-0.122
18,RRIRRRPPRLPRPRPRPDVKPRP,3.47
19,RRIRCRPPRLPRPRPRPMEGPRP,-0.00776
20,RRIRRRPPRLPRPRPRPVGMPRP,1.08
21,RRIRRRPPRLPRPRPRPGRNPRP,-0.000492

# Reference: the supplement of paper PMC9112550, “Optimization of the antimicrobial peptide Bac7 by deep mutational scanning” (BMC Biology, 2022)
